Data from US9750823B2, “Use of a truncated CCN1 promoter for cancer diagnostics, therapeutics and theranostics” (priority 2013, dated 2017).

Tests used:
[1] = test system: src-, raf-, ras- and HPV-transformed CREF cells; assay: Luciferase reporter assay of p-CCN1-luc and/or TPA in transformed CREF cells; type: cell-based, rat; settings: for effect on expression of the tCCN1-Prom: TPA 200 ng/ml
Method: FIGS. 1A and B. tCCN1 promoter activity in Prostate cancer (PC) and cloned rat embryo fibroblast (CREF) series of cell lines. […] B. src-, raf-, ras- and HPV-transformed CREF cells were treated with p-CCN1-luc and/or TPA (200 ng/ml).

[2] = test system: prostate cancer cells lines DU-145, PC-3, ARCaP, ARCaP-E, ARCaP-M and normal human prostate epithelial cell lines RWPE-1 and P69; assay: Dual-luciferase reporter assay of promoter activity (pCCN1-luc vs pPEG-luc); type: cell-based; settings: pGL3-luc reporter, normalized with pRL-TK
Excerpt: FIGS. 1A and B. tCCN1 promoter activity in Prostate cancer (PC) and cloned rat embryo fibroblast (CREF) series of cell lines. A. Prostate cancer DU-145, PC-3, ARCaP, ARCaP-E, and ARCaP-M cells and normal RWPE-1 and P69 cells were transfected with pGL3-luc reporter vector driven by PEG-Prom (pPEG-luc) or tCCN1-Prom (pCCN1-luc). pRL-TK (Renilla luciferase) was co-transfected for the normalization of luciferase activity, and the luminescence readings were plotted as relative luminescence units (RLU). *(p<0.05), **(p<0.01) and ***(p<0.001) indicates the statistical significance by using t-test between pPEG-luc and pCCN1-luc transfected cells. B. src-, raf-, ras- and HPV-transformed CREF cells were treated with p-CCN1-luc and/or TPA (200 ng/ml). The results were recorded as RLU. *(p<0.05) and **(p<0.01) indicates the statistical significance between pCCN1-luc and pCCN1-luc plus TPA treated cells.
Prostate cancer cells were plated at seeding density of 30,000 cells/well in quadruplicate in 24-well cell culture plate. After 24 h, cells were transfected with either pGL3.PEG-luc or pGL3.CCN1-hie using Fugene® HD transfection reagent (Promega, Madison, Wis., USA). […] Cells were lysed after 48 h of post transfection and luminescence was studied using Dual-luciferase Reporter® Assay system (Promega) with luminometer. […]

[3] = test system: breast, brain (including Glioblastoma multiforme, GBM) and melanoma; assay: tCCN1-Prom expression in additional human cancers vs normal counterparts (data not shown); type: cell-based

Row | Molecule | effect on expression of the tCCN1-Prom [1] | tCCN1-Prom activity compared with PEG-Prom (relative luminescence units) [2] | tCCN1-Prom activity in transformed CREF cells ([1]; src-, raf-, ras- and HPV-transformed CREF cells) | tCCN1-Prom expression in additional human cancers vs normal counterparts [3]
1 | CCCCCCCCCCCCCC(=O)O[C@@H]1[C@@H](C)[C@@]2(O)[C@@H](C=C(CO)C[C@]3(O)C(=O)C(C)=C[C@@H]23)[C@@H]2C(C)(C)[C@]12OC(C)=O [TPA] | increased the expression of the tCCN1-Prom |  |  | 
2 | Nc1ncnc2c1ncn2[C@@H]1O[C@@H]2COP(=O)(O)O[C@H]2[C@H]1O [cyclic adenosine mono-phosphate (AMP), cyclic adenosine mono-phosphate] | increased the expression of the tCCN1-Prom |  |  | 
3 | tCCN1-Prom: truncated CCN1 cancer selective promoter, SEQ ID NO: 1; tested in reporter plasmid pGL3.CCN1-luc (pCCN1-luc) (nucleic acid, Synthetic promoter) DNA: TCCAAAAACAAACAAGTACAACATACCCAAAAGAGGGAAGGGCTGGAGGAGTGGGGGAGACCTCTGCCTGGGAATTTGCCAGACGATGGGCAAGTTTCCCCCCGCCCCACCCCCCCCCCCGCCTTTTCATTCATAAATGCCACTGTGGGTATTAATTTGCAATTCACTGAACTTTGCTAATAAACATCATGCCAAAGCTTTGGGACTTGTTCCGAACACGCCTCTTTGAAGTCCACAAATATTCCTGACTCAGAGACACACTCCTCTTCCCCGTTCTACTCTTTCAACAGATAACTTGCCTCTCACCTTCGCTGTAAAAAAGCAAACAGCTCACTGCCTTCCCGGGTGAGGGCTTCAGTGGCTGCCCGGTCAACTCGCATCACCAAACAAAACGACTTTTGTTCCTCCCTCTCAGGTCCTCCCACCCACCCAGTCCAGGCAAAGTTCTGAACTGGCCCCCTCGCCCCTCACGACCCTCCAACTACCATCACCACCATCACGCCCCAAAGAACCCTTCCCAACATAAGTCGTAATTTAAGGTGGAAAAAACGAACTGTTTTCTTGACGGGTCTGGGACACACACACACACACACACACACACACACACCGAACTGTTTTCTTGACGGGTCTGGGAGACACACACACACACACACACACACACACACACACACACACACACACAAAGGTGCAATGGGGCCAGGGGAGGCGCTTGGCAGCAGCCCGCGCCAACCAGCATTCCTGAGATGTTTGAGAATTCTGGAACGCGCAGACAGAGCCGACGTCACTGCAACACGCGGCGCCTCCGCCGGCCCGTATAAAAGGCGGGCTCCGGGGCGCC |  | more active than the PEG-Prom in prostate cancer cells as compared to normal counterparts RWPE-1 and P69 | elevated as a function of transformation of CREF cells by diverse acting oncogenes | elevated expression in additional human cancers vs. normal immortal or primary normal counterparts
